Results on 3 molecules are retold here after patent US20220135701A1 (Genentech, published 2022).

The term Kd denotes the equilibrium constant for the complex coming apart.

Like-named read-outs stand apart in the source and are kept apart here.

For experiment [1], the target named is T1, mouse MerTK (mouse, UniProt Q60805 23-496).
T1 construct: also called MuMER
T1 sequence (looked up): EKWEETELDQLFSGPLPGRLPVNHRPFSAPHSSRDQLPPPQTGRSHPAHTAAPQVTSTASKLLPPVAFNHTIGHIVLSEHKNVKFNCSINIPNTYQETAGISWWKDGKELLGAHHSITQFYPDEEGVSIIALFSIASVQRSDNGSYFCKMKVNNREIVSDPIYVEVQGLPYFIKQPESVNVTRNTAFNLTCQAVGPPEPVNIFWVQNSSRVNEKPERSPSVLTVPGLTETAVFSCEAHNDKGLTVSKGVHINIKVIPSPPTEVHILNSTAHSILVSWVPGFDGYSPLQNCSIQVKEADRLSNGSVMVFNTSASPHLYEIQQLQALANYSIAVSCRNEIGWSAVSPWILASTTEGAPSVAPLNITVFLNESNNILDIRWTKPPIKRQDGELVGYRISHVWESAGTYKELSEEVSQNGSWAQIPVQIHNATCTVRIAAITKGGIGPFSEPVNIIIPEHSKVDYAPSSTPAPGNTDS
Kind of experiment: SPR BIAcore T200, Ab captured, 25C. As for the experimental part: (§1) All binding affinity determinations were obtained using Surface Plasmon Resonance (SPR) measurements from a BIAcore™-T200 instrument. Briefly, each rabbit or humanized antibody was captured to achieve approximately 100 RU (Response Units). Then, 3-fold serial dilutions of MerTK from various species (0.4 nM to 100 nM) diluted in HBS-EP buffer (0.01M HEPES pH 7.4, 0.15M NaCl, 3 mM EDTA and 0.05% v/v surfactant P20) was injected into the BIAcore™-T200 instrument at 25° C. or 37° C. with a flow rate of 30 μl/min. Association rates (kₒₙ) and dissociation rates (koff) were calculated using a simple one-to-one Langmuir binding model (BIAcore T200 evaluation software version 2.0). The equilibrium dissociation constant (KD) was calculated as the ratio koff/kₒₙ.

Experiment [2] has as its target T2, human MerTK (human, UniProt Q12866 26-499).
T2 construct: also called HuMER
T2 sequence: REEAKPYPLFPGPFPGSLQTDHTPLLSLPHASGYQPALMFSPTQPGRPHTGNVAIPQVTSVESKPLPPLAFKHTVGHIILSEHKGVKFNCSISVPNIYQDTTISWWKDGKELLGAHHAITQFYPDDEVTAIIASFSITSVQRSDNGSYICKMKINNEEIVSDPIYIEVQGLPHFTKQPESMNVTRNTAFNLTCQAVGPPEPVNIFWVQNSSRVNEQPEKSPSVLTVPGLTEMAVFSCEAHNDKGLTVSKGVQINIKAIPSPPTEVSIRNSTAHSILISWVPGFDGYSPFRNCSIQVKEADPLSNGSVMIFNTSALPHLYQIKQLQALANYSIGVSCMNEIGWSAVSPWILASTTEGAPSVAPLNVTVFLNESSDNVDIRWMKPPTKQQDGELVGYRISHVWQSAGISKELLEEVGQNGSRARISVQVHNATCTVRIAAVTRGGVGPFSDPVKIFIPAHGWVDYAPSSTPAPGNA
Kind of experiment: SPR BIAcore T200, Ab captured, 25C. As for the experimental part: as §1
(SPR reads the build-up and loss of mass on a sensor chip optically.)

The target of experiment [3] is T3, cynomolgus monkey MerTK (cynomolgus monkey, UniProt A0A2K5V1H9 32-505).
T3 construct: Soluble analyte in SPR; also called Cyno MerTK
T3 sequence: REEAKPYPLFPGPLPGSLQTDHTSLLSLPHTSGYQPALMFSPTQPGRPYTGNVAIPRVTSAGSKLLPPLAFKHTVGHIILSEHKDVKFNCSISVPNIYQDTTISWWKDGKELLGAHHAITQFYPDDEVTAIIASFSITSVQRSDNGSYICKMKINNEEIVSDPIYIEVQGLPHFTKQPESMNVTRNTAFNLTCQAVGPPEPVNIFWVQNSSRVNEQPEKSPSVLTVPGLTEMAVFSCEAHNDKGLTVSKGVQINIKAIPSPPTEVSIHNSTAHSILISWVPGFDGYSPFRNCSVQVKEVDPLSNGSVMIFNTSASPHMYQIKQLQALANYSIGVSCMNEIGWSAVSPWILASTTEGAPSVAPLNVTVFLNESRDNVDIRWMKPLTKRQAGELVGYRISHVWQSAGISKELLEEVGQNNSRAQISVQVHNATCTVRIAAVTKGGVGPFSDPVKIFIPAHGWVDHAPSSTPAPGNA
Briefly: SPR BIAcore T200, Ab captured, 25C. As for the experimental part: as §1

The target in experiment [4] is T4, MuMER (E23-S496) (mouse, UniProt Q60805 23-496).
T4 construct: range 23-496; also called mouse MerTK extracellular domain
T4 sequence (looked up): T1 sequence (looked up)
Briefly: SPR BIAcore T200, Ab captured, 25C. As for the experimental part: (§2) Binding affinity determinations were obtained using Surface Plasmon Resonance (SRP) measurements from a BIAcore™-T200 instrument. Briefly, each rabbit antibody was captured to achieve approximately 100 RU (Response Units). Then, 3-fold serial dilutions of the various MerTK domains (0.4 nM to 100 nM) diluted in HBS-EP buffer (0.01M HEPES pH 7.4, 0.15M NaCl, 3 mM EDTA and 0.05% v/v surfactant P20) was injected into the BIAcore™-T200 instrument at 25° C. or 37° C. with a flow rate of 30 μl/min. Association rates (kₒₙ) and dissociation rates (koff) were calculated using a simple one-to-one Langmuir binding model (BIAcore T200 evaluation software version 2.0). The equilibrium dissociation constant (KD) was calculated as the ratio koff/kₒₙ.
(§3) Antibody epitope determination was assessed by BIAcore analysis for rabbit antibodies binding against both the human and mouse MerTK extracellular domain (HuMER R26-A499 and MuMER E23-S496), Ig1&2 domain, Ig1-only domain, and Ig2-only domain (TABLE 18). Human MerTK and its domains are shown in light gray, while mouse MerTK and its domains are shown in dark gray.

The target in experiment [5] is T5, HuMER (R26-A499) (human, UniProt Q12866 26-499).
T5 construct: Extracellular domain with both Ig-like and both fibronectin-like domains; also called human MerTK extracellular domain
T5 sequence: T2 sequence
Briefly: SPR BIAcore T200, Ab captured, 25C. As for the experimental part: as §2, §3

Experiment [6] deals with T1, mouse MerTK. Kind of experiment: SPR BIAcore T200, Ab captured, 37C. As for the experimental part:
as §1

Experiment [7] concerns the target T2, human MerTK. Briefly: SPR BIAcore T200, Ab captured, 37C. As for the experimental part: as §1
Experiment [8] addresses T6, rat MerTK (rat, UniProt P57097 23-496, limits assumed).
T6 construct: Soluble analyte in SPR
T6 sequence (looked up): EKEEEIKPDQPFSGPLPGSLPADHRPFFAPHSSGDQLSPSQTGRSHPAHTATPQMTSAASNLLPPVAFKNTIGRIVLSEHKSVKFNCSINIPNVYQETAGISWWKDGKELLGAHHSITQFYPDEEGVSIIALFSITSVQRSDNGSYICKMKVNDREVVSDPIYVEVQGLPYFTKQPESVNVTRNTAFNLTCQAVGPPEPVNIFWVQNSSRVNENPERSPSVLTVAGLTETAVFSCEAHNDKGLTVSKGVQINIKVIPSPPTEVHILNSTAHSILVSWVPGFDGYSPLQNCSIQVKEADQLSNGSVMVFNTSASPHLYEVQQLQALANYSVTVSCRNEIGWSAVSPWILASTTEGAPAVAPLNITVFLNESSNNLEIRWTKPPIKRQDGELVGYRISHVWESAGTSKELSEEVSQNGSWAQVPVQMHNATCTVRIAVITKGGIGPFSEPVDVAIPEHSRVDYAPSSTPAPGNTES
Kind of experiment: SPR BIAcore T200, Ab captured, 37C. As for the experimental part:
as §1

Experiment [9] deals with T3, cynomolgus monkey MerTK. Kind of experiment: SPR BIAcore T200, Ab captured, 37C. As for the experimental part: as §1
Experiment [10] has as its target T7, human MerTK on human macrophages (human, UniProt Q12866 21-999).
T7 sequence: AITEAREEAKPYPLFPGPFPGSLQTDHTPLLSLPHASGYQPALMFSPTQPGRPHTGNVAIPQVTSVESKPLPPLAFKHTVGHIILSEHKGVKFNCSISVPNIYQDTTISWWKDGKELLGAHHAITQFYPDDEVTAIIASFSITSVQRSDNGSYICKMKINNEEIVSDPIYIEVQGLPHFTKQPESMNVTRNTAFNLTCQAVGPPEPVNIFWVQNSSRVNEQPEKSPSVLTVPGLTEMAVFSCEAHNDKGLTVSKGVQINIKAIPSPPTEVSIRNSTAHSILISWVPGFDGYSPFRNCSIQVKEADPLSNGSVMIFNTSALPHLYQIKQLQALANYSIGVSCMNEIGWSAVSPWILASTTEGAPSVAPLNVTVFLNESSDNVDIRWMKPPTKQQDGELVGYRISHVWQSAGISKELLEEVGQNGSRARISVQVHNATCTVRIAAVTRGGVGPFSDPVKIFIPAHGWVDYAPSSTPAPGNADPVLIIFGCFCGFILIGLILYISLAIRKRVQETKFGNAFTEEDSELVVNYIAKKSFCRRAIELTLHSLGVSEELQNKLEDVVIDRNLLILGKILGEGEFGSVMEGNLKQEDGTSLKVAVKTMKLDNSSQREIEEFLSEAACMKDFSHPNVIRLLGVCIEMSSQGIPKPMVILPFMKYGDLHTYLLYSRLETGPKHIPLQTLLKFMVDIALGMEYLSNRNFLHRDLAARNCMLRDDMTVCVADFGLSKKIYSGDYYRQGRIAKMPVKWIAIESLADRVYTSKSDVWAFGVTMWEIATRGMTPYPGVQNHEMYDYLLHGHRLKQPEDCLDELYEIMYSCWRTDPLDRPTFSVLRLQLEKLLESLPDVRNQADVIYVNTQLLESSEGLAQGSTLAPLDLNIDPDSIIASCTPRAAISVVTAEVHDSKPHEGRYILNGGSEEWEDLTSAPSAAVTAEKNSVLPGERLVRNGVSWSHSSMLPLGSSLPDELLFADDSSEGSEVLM
Briefly: cell-based or functional assay.

Experiment [11] deals with T1, mouse MerTK. Briefly: SPR BIAcore T200, Ab captured, 37C. As for the experimental part:
(§4) Each rabbit and humanized antibody was subjected to a binding assay to determine its affinity to MerTK derived from various species.
as §1
This is another data set of the same source.

The target in experiment [12] is T2, human MerTK. Briefly: SPR BIAcore T200, Ab captured, 37C. As for the experimental part:
as §4, §1
The source holds these as a separate data set.

For experiment [13], the target named is T6, rat MerTK. Kind of experiment: SPR BIAcore T200, Ab captured, 37C. As for the experimental part:
as §4, §1
The source holds these as a separate data set.

Experiment [14] has as its target T3, cynomolgus monkey MerTK. Kind of experiment: SPR BIAcore T200, Ab captured, 37C. As for the experimental part:
as §4, §1
The source holds these as a separate data set.

B1: Rbt9E3.FN (antibody, V domains shown)
VH: QSVEESGGRLVTPGTPLTLTCTVSGFSLSSNAMSWVRQAPGKGLEWIGIISSSGSTYSASWAKGRFTISKTSTTMDLKITSPTTEDTATYFCARVGFFVGYGAYDYGIIHRLDLWGQGTLVTVSS
VL: AAVLTQTPSPVSAAVGGTVSISCQSSKSIYNNNWLSWYQQKPGQPPKLLIYDASDLASGVPSRFEGSGSGTEFTLTISDLECDDAATYYCAGGYSGDSDYAFGGGTEVVVK
notes: Recombinant rabbit monoclonal antibody, Expi293, protein A purified
For B1, the Kd in [1] was found to be 0.6 nM; in experiment [2], 2.6 nM; in experiment [3] it was 2.5 nM; in experiment [4] it was 0.6 nM; in experiment [5] it was 2.6 nM; in experiment [6], 0.6 nM. Moreover, the Kd in [7] is 5.1 nM; in experiment [8], 1.7 nM; in experiment [9] it was 2.5 nM.

B2: Rbt10F7 (antibody, V domains shown)
VH: QSVEESGGRLVTPGTPLTLTCTVSGFSLSGYAMSWVRQAPGKGLEYIGVISSSGSSYYPSWAKGRFTISKTSTTVDLQITSPTTEDTATYFCARVQFYVGYAVYGYGIIDRLDLWGQGTLVTVSS
VL: AAVLTQTPSPVSATMGGTVSISCQSSKSVYNNNWLSWYQQKPGQPPKLLIYRASTLESGVPSRFKGSGSGTQFTLTISDVHCDDAATYFCAGGYSSSSSANAFGGGTEVVVK
notes: as for B1
Take B2: the Kd was 4.1 nM in experiment [1]; 7 nM in experiment [2]; 4.7 nM in [3]; 4.1 nM in experiment [4]; 7 nM in experiment [5]; 2.4 nM in experiment [6]. Moreover, the Kd is 10.9 nM in experiment [7], 5.8 nM in [8] and 5.1 nM in experiment [9].

B3: h9E3.FN.v16 (antibody, V domains shown)
VH: EVQLVESGGGLIQPGGSLRLSCAASGFSLSSNAMSWVRQAPGKGLEWVSIISSSGSTYSASWAKGRFTISKDNSKNTLYLQMNSLRAEDTAVYYCARVGFFVGYGAYDYGIIHRLDLWGQGTLVTVSS
VL: DIQLTQSPSTLSASVGDRVTITCQSSKSIYNNNWLSWYQQKPGKPPKLLIYDASDLASGVPSRFSGSGSGTEFTLTISSLQPDDFATYYCAGGYSGDSDYAFGGGTKVEIK
notes: Humanized, human IgG1; also called 9E3.FN Humanized polished mAb
B3: in experiment [10], the “IC50 (nM), efferocytosis by human macrophages, Average (3 Donors)” value is 1.02 nM; the “IC50 (nM), efferocytosis by human macrophages, Donor A” value amounted to 0.59 nM; the “IC50 (nM), efferocytosis by human macrophages, Donor C” value came out at 1.5 nM; the “Max Inhibition (%), efferocytosis by human macrophages, Average (3 Donors)” value came to 57%. In experiment [10], the “Max Inhibition (%), efferocytosis by human macrophages, Donor A” value turned out to be 58% and the “Max Inhibition (%), efferocytosis by human macrophages, Donor C” value was found to be 55%. This molecule also yielded an equilibrium dissociation constant (Kd) in experiment [11] of 1.1 nM. For the same molecule, in experiment [12], the affinity, expressed as Kd, was 5.8 nM. This molecule came in with a dissociation constant (Kd) in [13] of 3 nM. Also, binding in experiment [14] was characterised by a dissociation constant (Kd) of 2.5 nM.
